From IntAct's records for PubMed 30073165

B1: Cannabinoid receptor 1 (Homo sapiens), P21554 (parent)
chain: MKSILDGLADTTFRTITTDLLYVGSNDIQYEDIKGDMASKLGYFPQKFPLTSFRGSPFQEKMTAGDNPQLVPADQVNITEFYNKSLSSFKENEENIQCGENFMDIECFMVLNPSQQLAIAVLSLTLGTFTVLENLLVLCVILHSRSLRCRPSYHFIGSLAVADLLGSVIFVYSFIDFHVFHRKDSRNVFLFKLGGVTASFTASVGSLFLTAIDRYISIHRPLAYKRIVTRPKAVVAFCLMWTIAIVIAVLPLLGWNCEKLQSVCSDIFPHIDETYLMFWIGVTSVLLLFIVYAYMYILWKAHSHAVRMIQRGTQKSIIIHTSEDGKVQVTRPDQARMDIRLAKTLVLILVVLIICWGPLLAIMVYDVFGKMNKLIKTVFAFCSMLCLLNSTVNPIIYALRSKDLRHAFRSMFPSCEGTAQPLDNSMGDSDCLHKHANNAASVHRAAESCIKSTVKIAKVTMSVSTDTSAEAL
partner: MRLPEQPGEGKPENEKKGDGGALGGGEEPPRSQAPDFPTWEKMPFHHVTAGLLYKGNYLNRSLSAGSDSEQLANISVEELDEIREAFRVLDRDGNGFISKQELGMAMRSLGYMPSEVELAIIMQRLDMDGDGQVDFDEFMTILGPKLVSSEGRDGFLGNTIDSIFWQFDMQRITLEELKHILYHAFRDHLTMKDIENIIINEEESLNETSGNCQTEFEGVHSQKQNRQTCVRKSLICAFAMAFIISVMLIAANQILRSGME

Variants of: B1
Conditions: with cabp8_human CALN1, Q9BXU9

Variant | effect of a mutation on the interaction
MKSILDGLADTTFRTITTDLLYVGSNDIQYEDIKGDMASKLGYFPQKFPLTSFRGSPFQEKMTAGDNPQLVPADQVNITEFYNKSLSSFKENEENIQCGENFMDIECFMVLNPSQQLAIAVLSLTLGTFTVLENLLVLCVILHSRSLRCRPSYHFIGSLAVADLLGSVIFVYSFIDFHVFHRKDSRNVFLFKLGGVTASFTASVGSLFLTAIDRYISIHRPLAYKRIVTRPKAVVAFCLMWTIAIVIAVLPLLGWNCEKLQSVCSDIFPHIDETYLMFWIGVTSVLLLFIVYAYMYILWKAHSHAVRMIQRGTQKSIIIHAAEDGKVQVTRPDQARMDIRLAKTLVLILVVLIICWGPLLAIMVYDVFGKMNKLIKTVFAFCSMLCLLNSTVNPIIYALRSKDLRHAFRSMFPSCEGTAQPLDNSMGDSDCLHKHANNAASVHRAAESCIKSTVKIAKVTMSVSTDTSAEAL [T321A;S322A] | disrupting interaction strength
